This is an account of results in patent publication US20230114801A1 (SYSTIMMUNE, published 2023).

The Kd is the free concentration of one partner at which half of the binding sites on the other are occupied at equilibrium, for simple one-to-one binding. Read a high Kd as lower affinity.

Assay [1] deals with T1, human CD3 (human, UniProt P07766 23-126; P04234 22-105).
T1 construct: also called His-tagged human CD3; human CD3 (Acro CDD-H52W1)
The experiment in a line: BLI (Octet), binder on AHC sensor, 100 nM human CD3, 1:1 fit.

Assay [2] has as its target T2, human HER3 (human, UniProt P21860 20-643).
T2 construct: Soluble antigen in Octet; bought; also called human HER3 (Acro ER3-H5223)
As to the kind of experiment: BLI (Octet), binder on AHC sensor, 200 nM human HER3, 1:1 fit; molecule has two HER3-binding domains, same value printed under D2 and D5. On the technique in general: In BLI a coated tip is dipped into the sample, and binding shifts an interference pattern.

Assay [3] addresses T3, human EGFR (human, UniProt P00533 25-645, limits assumed).
T3 construct: Soluble antigen in Octet; construct not described
The experiment in a line: BLI (Octet), binder on AHC sensor, 200 nM human EGFR, 1:1 fit; molecule has two EGFR-binding domains, same value printed under D1 and D4.

B1: SI-75P8 (other)
chain 1: EVQLQESGGGLVQAGDSLSLSCLVSGRSFNSYTMGWFRQAPGKEREFVAAILWSGPTTYYADSVKGRFTISRDNAKNTVYLQMNSLKPEDTAVYYCAAALGVLVLAPGNVYSYWGQGTQVTVSSGGGGSGGGGSQVQLQESGGRLVQPGEPLSLTCKTSGIDLSSNAIGWVRQAPGKGLEWIGVIFGSGNTYYASWAKGRFTISRSTSTVYLKMNSLRSEDTAIYYCARGGYSSDIWGQGTLVTVSSASTKGPSVFPLAPSSKSTSGGTAALGCLVKDYFPEPVTVSWNSGALTSGVHTFPAVLQSSGLYSLSSVVTVPSSSLGTQTYICNVNHKPSNTKVDKRVEPKSCDKTHTCPPCPAPEAAGGPSVFLFPPKPKDTLMISRTPEVTCVVVDVSHEDPEVKFNWYVDGVEVHNAKTKPREEQYNSTYRVVSVLTVLHQDWLNGKEYKCAVSNKALPAPIEKTISKAKGQPREPQVYTLPPSRDELTKNQVSLSCAVKGFYPSDIAVEWESNGQPENNYKTTPPVLDSDGSFFLVSKLTVDKSRWQQGNVFSCSVMHEALHNHYTQKSLSLSPGGGGGSGGGGSQVQLQQSGPGLVKPSETLSITCTVSGFSLTNYGVHWIRQAPGKGLEWLGVIWSGGNTDYNTPFTSRFTITKDNSKNQVYFKLRSVRADDTAIYYCARALTYYDYEFAYWGQGTLVTVSSGGGGSGGGGSGGGGSGGGGSEIVLTQSPSTLSVSPGERATFSCRASQSIGTNIHWYQQKPGKPPRLLIKYASESISGIPDRFSGSGSGTEFTLTISSVQSEDFAVYYCQQNNNWPTTFGPGTKLTVL
chain 2: QVQLVQSGGGLVQAGGSLSLSCAFSGRTFSMYTMGWFRQAPGKEREFVAANRGRGLSPDIADSVNGRFTISRDNAKNTLYLQMDSLKPEDTAVYYCAADLQYGSSWPQRSSAEYDYWGQGTTVTVSSGGGGSGGGGSDPQLTQSPSSLSATVGQRVTINCQSSQSVAKNNNLAWFQQKPGKPPKLLIYSASTLAAGVPSRFSGSGSGTQFTLTITRVQSEDFATYYCSARDSGNIQSFGGGTRVEIKRTVAAPSVFIFPPSDEQLKSGTASVVCLLNNFYPREAKVQWKVDNALQSGNSQESVTEQDSKDSTYSLSSTLTLSKADYEKHKVYACEVTHQGLSSPVTKSFNRGECGGDKTHTCPPCPAPEAAGGPSVFLFPPKPKDTLMISRTPEVTCVVVDVSHEDPEVKFNWYVDGVEVHNAKTKPREEQYNSTYRVVSVLTVLHQDWLNGKEYKCAVSNKALPAPIEKTISKAKGQPREPQVYTLPPSRDELTKNQVSLWCLVKGFYPSDIAVEWESNGQPENNYKTTPPVLDSDGSFFLYSKLTVDKSRWQQGNVFSCSVMHEALHNRFTQKSLSLSPGGGGGSGGGGSQVQLQESGGGLVKPGGSLSLSCAASGFTFSSYWMSWVRQAPGKGLEWVANINRDGSASYYVDSVKGRFTISRDDAKNSLYLQMNSLRAEDTAVYYCARDRGVGYFDLWGRGTLVTVSSGGGGSGGGGSGGGGSQSALTQPASVSGSPGQSITISCTGTSSDVGGYNFVSWYQQHPGKAPKLMIYDVSDRPSGVSDRFSGSKSGNTASLIISGLQADDEADYYCSSYGSSSTHVIFGGGTKVTVL
notes: D1 αEGFR VHH, D2 αHER3 VHH, D3 αCD3* (Fab), D4 αEGFR scFv, D5 αHER3 scFv
B1: the dissociation constant Kd was determined as 44.1 nM in assay [1], 0.786 nM in assay [2] and 6.22 nM in assay [3].
